The values that follow are results of earlier work, collected in patent publication CN114306299A, “贝利司他在制备缓解和/或治疗缺血性脑卒中药物中的应用” (Institute of Materia Medica of CAMS and PUMC, priority 2020, dated 2022).

For the series, the system named is stroke (脑卒中). The following applies: clinical studies, fraction of patients.

B1: t-PA: 美国FDA唯一批准用于治疗脑卒中的药物 (protein, UniProt P00750 36-562, looked up)
Tissue-type plasminogen …: SYQVICRDEKTQMIYQQHQSWLRPVLRSNRVEYCWCNSGRAQCHSVPVKSCSEPRCFNGGTCQQALYFSDFVCQCPEGFAGKCCEIDTRATCYEDQGISYRGTWSTAESGAECTNWNSSALAQKPYSGRRPDAIRLGLGNHNYCRNPDRDSKPWCYVFKAGKYSSEFCSTPACSEGNSDCYFGNGSAYRGTHSLTESGASCLPWNSMILIGKVYTAQNPSAQALGLGKHNYCRNPDGDAKPWCHVLKNRRLTWEYCDVPSCSTCGLRQYSQPQFRIKGGLFADIASHPWQAAIFAKHRRSPGERFLCGGILISSCWILSAAHCFQERFPPHHLTVILGRTYRVVPGEEEQKFEVEKYIVHKEFDDDTYDNDIALLQLKSDSSRCAQESSVVRTVCLPPADLQLPDWTECELSGYGKHEALSPFYSERLKEAHVRLYPSSRCTSQHLLNRTVTDNMLCAGDTRSGGPQANLHDACQGDSGGPLVCLNDGRMTLVGIISWGLGCGQKDVPGVYTKVTNYLDWIRDNMRP
As for B1, the “patients in whom t-PA is effective” value is recorded as “三分之一”. Besides, the “patients in whom treatment is ineffective or condition worsens” value (after t-PA treatment) was “三分之二”.
